Numbering of substitutions follows the chain as printed.
B1: 10-J24-A (antibody, V domains shown)
VH: EVQLVESGGGLVKPGGSLKLSCAASGFTFSSYAMSWVRQNPAKRLEWVATISGGGGFTYYPDSVKGRFTISRDNAKNTLYLQMNSLRSEDTAMYYCARDEDGKHDYFDYWGQGTTLTVSS
VL: DIVMTQSHKFMSTSVGDRVSITCKASQDVGTAVAWYQQKPGQSPKLLIYWASTRHTGVPDRFTGSGSGTDFTLTISNVQSEDLADYFCQQYASYPLTFGGGTKLVIK
B2: 4-C22-A (antibody, V domains shown)
VH: EVQLVESGGDLVKPGGSLKLSCAASGFTFSSFGMSWVRQTPDKRLEWVATISSGGGFTYYPDSVEGRFTISRDNAKNTLYLQMSSLKSEDTAMYYCARRLYDYDWFAYWGQGTLVTVSA
VL: B1 VL with F10I, G30V, Q38K, Y49H, A92S, G100A, V105E, I106L
B3: 4-L4-A (antibody, V domains shown)
VH: QAYLQQSGAELVRPGASVKMSCKASGYTFTSYTVHWVKQTPRQGLEWIGGIYPGNVDTSYNQNFKGKATLTVDKSSSTAYMQLSSLTSEDSAVYFCARDGYYAMDYWGQGTSVTVSS
VL: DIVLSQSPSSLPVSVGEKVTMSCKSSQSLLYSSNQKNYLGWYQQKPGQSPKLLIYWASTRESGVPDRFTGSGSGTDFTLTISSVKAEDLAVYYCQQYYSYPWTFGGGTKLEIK
B4: 8-H5-A (antibody, V domains shown)
VH: QVTLKESGPGILQSSQTLSLTCSLSGFSLSTSGMGVSWVRQPSGKGLEWLAHIYWDDDKRYTPSLKSRLTISTDSSRKQVFLKITSVDTADTATYYCARRDLHDYDGWFAYWGQGTLVTVSA
VL: DIVMTQSQKFMSTAVGDRVSVTCKASQNVGTNVAWYQQKPGQSPKALIYSASFRYSGVPDRFSGSGSGTDFTLTISNVQSEDLAEYFCQQYNSYPLTFGSGTKLEIK
B5: 4-N22-A (antibody, V domains shown)
VH: QVQLQQPGTELVKPGASVKLSCKASGYTFTNYWMYWVKQRPGQGLDWIGNINPSNGGTNYNEKFKSKATLTVDKSSSTAYMQLSSLTSEDSAVYYCARETGNYWGQGTTLTVSS
VL: DILMTQSPSSMSVSLGDTVSISCHASQGISSNIGWLQQKPGKSFKGLIYHGTNLEDGVPSRFSGSGSGADYSLTISSLESEDFADYYCVQYAQFPYTFGGGTKLEIK
B6: 4-M3-A (antibody, V domains shown)
VH: EVQLQQSGPELVKPGDSVKISCKASGYSFTGYFMNWVMQSHGKSLEWIGRINPNNGETFYNQKFKGKATLTVDKSSDTAHMELRSLTSEDSAVYYCARGGTGTGWGQGTTLTVSS
VL: B5 VL with S22T, H50Y, F83L, V89I
B7: 6-C19-A (antibody, V domains shown)
VH: QIQLVQSGPELKKPGETVKISCKASGNTFTTAGMQWVQKMPGKGFKWIGWINTHSGEPKYAEDFKGRFAFSLETSASTAYLQISNLKNEDTATYFCARYGDYYYFDCWGQGTTLTVSS
VL: DIQMTQSPASLSASVGETVTITCRASGNIHNYLAWYQQKQGKSPQLLVYNAKTLADGVPSRFSGSGSGTQYSLKINSLQPEDFGSFYCQHFWTTPWSFGGGTKLEIK
B8: 9-L13-A (antibody, V domains shown)
VH: QVQLKESGPGLVAPSQSLSITCTVSGFSLTSYAISWVRQPPGKGLEWLGLIWTGGGTNYNSALKSRLSISKDNSKSQIFLKMNSLQTDDTARYYCARGPPLIYYGDLYYFDYWGQGTTLTVSS
VL: DIQMTQSPSSLSASLGGKVTITCKASQDINKYIAWYQHKPGKGPRLLIHYTSTLQPGIPSRFSGSGSGRDYSFSISNLEPEDIATYYCLQYDNLWTFGGGTKLEIK
B9: 6-O12-A (antibody, V domains shown)
VH: QVQLQQPGTELVKPGASVKLSCKASGYTFTSYWMHWVKQRPGQGLEWIGNINPSNGGTNYNEKFRSKATLTVDKSSSTAYMQLSSLTSEDSAVYYCARLGWFLPLGSWGQGTTLTVSS
VL: QIVLTQSPAIMSASLGEVITLTCSASSSVSYMHWYQQKSGTSPKLLIYSTSNLASGVPSRFSGSGSGTFYSLTISSVEAEDAADYYCHQWSGYMYTFGGGTKLEIK
B10: 2-O12-A (antibody, V domains shown)
VH: EVQLQQSGPELVKPGASVKISCKASGYTFTDYYMNWVKQSHGKSLEWIGDINSNNGGTTYDQKFKGKATLTVDRSSSTAYMELRSLTSEDSAVYYCARRGDGHFGGFTYWGQGTLVTVSA
VL: not shown
B11: 1-L10-A (antibody, V domains shown)
VH: EVKLEESGGGLVQPGGSMKLSCVASGFTFNNYWMNWVRQSPEKGLEWVAQMRLKSDNYATHYAESVKGRFTISRDDSKSSVYLQMNNLRAEDTGIYYCIEGYWTYWGQGTLVTVSA
VL: QIVLTQSPAIMSASLGERVTMTCTASSSVSSSYLHWYQQKPGSSPKLWIYSTSNLASGVPARFSGNGSGTSYSLTISSMEAEDAATYYCLQYHRSPPYTFGGGTKLEIK
B12: 2-H7-A (antibody, V domains shown)
VH: QAYLQQSGAELVRPGASVKMSCKASGYTFTGYTMHWVKQTPRQGLEWIGAIYPENGDTSYNQKFKGKATLTVDKSSSTAYMQLSSLTSEDSAVYFCARDGYDVLYGMDYWGQGTSVTVSS
VL: DIVLTQSPASLAVSLGQRATISCRASKSVSTSGYSYMHWYQQKPGQPPKLLIYLASNLESGVPARFSGSGSGTDFTLNIHPVEEEDAATYYCQHSRELPWTFGGGTKLDIK
B13: 2-G20-A (antibody, V domains shown)
VH: EVQLQQSGPELVKPGASVKMSCKASGYTFPSYVLHWVKQKPGQGLEWIGYIYPYNDGTNYNEKFKGKATLTSDKSSSTAYMELSSLTSEDSAVYYCARGDYGDSAWFPYWGQGTLVTVSA
VL: B12 VL with E59K, S69G, H94L, D109E

Assays:
Test in all cases: ELISA
[1] = molecular target: T1, SARS-CoV-2 P.1 spike protein (SARS-CoV-2 P.1 (Gamma), UniProt P0DTC2 13-1213)
[2] = molecular target: T1, SARS-CoV-2 P.1 spike protein; remark: listed apart in the source
[3] = molecular target: SARS-CoV-2 B.1.1.7 spike protein (SARS-CoV-2 B.1.1.7 (Alpha), UniProt P0DTC2 13-1213)

Binder	EC50 [1] [µM]	IC50 [2] [µM]	IC50 [3] [µM]
B1	0.0161	–	–
B2	0.00144	–	–
B3	–	0.0282	0.0316
B4	–	0.0305	0.0154
B5	–	0.0172	0.00151
B6	–	0.0135	0.00498
B7	0.00062	–	–
B8	–	–	0.0653
B9	–	0.00801	0.00705
B10	–	–	0.0876
B11	–	0.0115	0.00782
B12	–	0.0356	0.00988
B13	–	0.0189	0.0192
